According to patent publication US20220195053A1 (SURROZEN OPERATING, published 2022):

T1: Mucin 13, cell surface associated (MUC-13), on human intestine HT29 cells (human, UniProt Q9H3R2 19-512)
T1 construct: whole, on cells
T1 sequence (looked up): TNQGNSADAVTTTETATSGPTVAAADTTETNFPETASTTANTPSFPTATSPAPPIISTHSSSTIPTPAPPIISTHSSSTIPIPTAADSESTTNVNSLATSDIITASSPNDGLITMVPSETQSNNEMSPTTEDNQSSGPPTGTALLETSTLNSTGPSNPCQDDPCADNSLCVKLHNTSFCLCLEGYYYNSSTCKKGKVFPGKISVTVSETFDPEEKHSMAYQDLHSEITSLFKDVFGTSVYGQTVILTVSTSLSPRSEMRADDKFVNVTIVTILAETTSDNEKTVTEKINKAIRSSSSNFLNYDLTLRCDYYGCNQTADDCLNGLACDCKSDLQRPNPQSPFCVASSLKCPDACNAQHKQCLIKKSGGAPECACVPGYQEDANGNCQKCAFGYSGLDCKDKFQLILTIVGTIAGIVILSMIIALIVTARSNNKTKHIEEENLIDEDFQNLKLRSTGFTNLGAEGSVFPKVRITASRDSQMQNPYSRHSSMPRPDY


Legend:
[1] = target: T1, Mucin 13, cell surface associated …; test: Flow cytometry (FACS) on MUC-13 expressing HT29 cells, antibody at 10 nM, fluorescent goat anti-human secondary antibody, compared with the anti-GFP IgG control. MUC-13 negative HEK293 cells serve as the specificity control.
Description: (§1) Cell surface binding of the MUC-13 antibodies was examined by FACS at 10 nM.
(§2) The MUC-13 binders C4, C7, and C14 (see, e.g., WO2016168607A1) were cloned and produced in the full-length IgG format and their binding capacity to MUC-13 was determined by FACS analysis to MUC-13 expressing HT29 cells. Their potential binding to MUC-13 non-expressing HEK293 cells was also analyzed as a negative control. Cells were harvested and washed 2× with FACS buffer (PBS (—Ca²⁺, —Mg²⁺), 0.1% BSA, 0.5% sodium Azide) and resuspended in FACS buffer at 10⁶ cells/ml. 60 μl of the cell suspension was aliquoted to each well of a 96-well v bottom plate, and the plate was spun for 3 min at 1500 rpm to remove the FACS buffer before adding corresponding MUC-13 antibody or anti-GFP control antibody at 10 nM diluted in FACS buffer and incubated at 4C for 1 hour. Plate was then spun to remove the primary antibodies and washed 1× with FACS buffer before adding Alexa Fluor® 488 goat anti-human secondary antibody (ThermoFisher Scientific) and incubating at 4C for 30 min. This media was then removed after spinning, and the plate washed 1× in FACS buffer. Cells were then resuspended in […] FACS buffer and analyzed on a BD Accuri™ Cell Analyzers (Becton Dickinson) at 10,000 events. […]

[2] = target: T1, Mucin 13, cell surface associated …; test: Flow cytometry (FACS) on MUC-13 expressing HT29 cells, antibody at 10 nM, compared with the anti-GFP IgG control. HEK293 cells serve as the MUC-13 negative control.
Description: as §1, §2

binding result [1] | binding result [2] | Binder
binds |  | C14 MUC-13 antibody, full-length IgG format (antibody, V domains shown) VH: QVQLQQSGAELVRPGSSVKISCKASGYAFSTYWMNWVKQRPGQGLEWIGQIYPGDGDTYYNGNFKGKATLTADKSSSTAYMQLSSLTSEDSAVYFCAVFWDGYWGQGTTLTVSS VL: QIVLTQSPTIMSASPGEKVTMTCSASSSVTYIHWYQQKSGTSPKRWIYDTSKLASGVPARFGGSGSGTSYSLTINSMETEDAATYYCQQWSSNPFTFGSGTKLEIKR
 | no binding (tested: 10 nM) | C4 MUC-13 antibody, full-length IgG format (antibody, V domains shown) VH: DVQLQESGPGLVKPSQSLSLTCSVTGYSITSGYYWNWIRQFPGNKLEWMGYISYDGSNNYNPSLKNRISITRDTSKNQFFLKLNSVTTEDTATYYCVRVPTMITSYYFDYWGQGTTLTVSS VL: QIVLTQSPAIMSASPGEKVTISCSASSSVGYIYWYQQKPGSSPKPWIYRTSNLASGVPARFSGSGSGTSYSLTISSMEAEDAATYYCQQYHSYPPTFGGGTKLEIKR
